Experimental data published in the RNAGym collection of RNA variant scans (doi:10.1073/pnas.2313332121).

B1: TPR t1 (parent)
chain: GACCAAUCUGCCCUCAGAGCUCGAGAACAUCUUCGGAUGCAGAGGAGGCAGGCUUCGGUGGCGCGAUAGCGCCAACGUCCUCAACCUCCAAUGCAUCCCACCACAUGAUGAUGCCUGAAGAGCCUUGGUUUUUUG

Variants of: B1
Assay: polymerase ribozyme fitness, log enrichment relative to wild type (log ratio); higher = more active; in vitro selection for triplet polymerase activity
Procedure, shortened: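 A single round of triplicate in vitro selection, including frozen incubation at −7 °C, was applied to PCR-built, transcribed mutant libraries of each subunit of a heterodimeric triplet polymerase ribozyme. Illumina sequencing of input and output libraries retained genotypes with ≥10 input reads and ≥1 read per output. Fitness is the base-2 logarithm of genotype enrichment divided by wild-type enrichment, from inverse-variance-weighted replicate averages.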

First: C72A C82A U87A
Second: A68G U129A
The “polymerase ribozyme fitness (log ratio)” value of the first is higher: -0.837 for the first, -4.01 for the second.

Compared with A68G U129G, C70U C97U C123G U126A is higher in “polymerase ribozyme fitness (log ratio)” value: -4.32 for the first, -0.00382 for the second.

Going from C70A C99U to G69A C70U, the “polymerase ribozyme fitness (log ratio)” value rises from -5.26 to -3.12.

Compared with A68U A121G, A68U A121U is higher in “polymerase ribozyme fitness (log ratio)” value: -6.65 for the first, -6.36 for the second.

Compared with G71A A111G, G69A A95C G113A is lower in “polymerase ribozyme fitness (log ratio)” value: -0.423 for the first, -3.61 for the second.

Going from G69A C88A C123G C124A G135U to C70U C82G, the “polymerase ribozyme fitness (log ratio)” value rises from -3.37 to -0.344.

First: G69A U81G A84C G93U C97G U112A
Second: C72A A91C G117C
The “polymerase ribozyme fitness (log ratio)” value of the first is lower: -6.86 for the first, -4.28 for the second.

C70U C114A and G71U C82G G117A are within 0.2 log units of each other in “polymerase ribozyme fitness (log ratio)” value: -2.33 for the first, -2.4 for the second.

First: A68U G120C
Second: A68U G120A
The “polymerase ribozyme fitness (log ratio)” value of the first is lower: -5.33 for the first, -3.93 for the second.

G69A G135A and C72A C80U C114G are within 0.2 log units of each other in “polymerase ribozyme fitness (log ratio)” value: -3.3 for the first, -3.31 for the second.

First: G69C U96G U106C
Second: G69U C102U A121U
The “polymerase ribozyme fitness (log ratio)” value of the first is higher: -3.19 for the first, -3.9 for the second.

Going from A68G U112G to G69U C79G, the “polymerase ribozyme fitness (log ratio)” value rises from -2.31 to -1.63.

First: C70U C80A
Second: C70A G93C
The “polymerase ribozyme fitness (log ratio)” value of the first is lower: -5.7 for the first, -3.33 for the second.

Compared with G69U C94U C101A, C70A C86A is lower in “polymerase ribozyme fitness (log ratio)” value: -0.271 for the first, -2.39 for the second.

First: G69A U81A C124A
Second: G69A C85U
The “polymerase ribozyme fitness (log ratio)” value of the first is higher: -1.99 for the first, -3.69 for the second.

First: G69A U116C
Second: G69C A95G
The “polymerase ribozyme fitness (log ratio)” value of the first is lower: -3.45 for the first, -1.13 for the second.

Going from C70A C114A to C70G U129C, the “polymerase ribozyme fitness (log ratio)” value falls from -2.64 to -3.02.

Going from G69U C85A to C70U U131A, the “polymerase ribozyme fitness (log ratio)” value rises from -1.08 to -0.232.

Going from C70U U131C to C70G G110A, the “polymerase ribozyme fitness (log ratio)” value falls from 0.366 to -4.37.

First: C70U C82G C124A U130C
Second: C70A C114A A119U
The “polymerase ribozyme fitness (log ratio)” value of the first is higher: 0.602 for the first, -4.59 for the second.

Going from G69U C104A to G69U C104G, the “polymerase ribozyme fitness (log ratio)” value falls from -0.638 to -4.34.

G69U C86G and C70U A111G are within 0.2 log units of each other in “polymerase ribozyme fitness (log ratio)” value: 0.0893 for the first, 0.0643 for the second.

Compared with C70A U96A, C70A C101A is higher in “polymerase ribozyme fitness (log ratio)” value: -2.63 for the first, -2.43 for the second.

Going from A68G U78C to G69A G120A, the “polymerase ribozyme fitness (log ratio)” value rises from -3.07 to -1.48.

Compared with G69A G120C, G71C G135U is lower in “polymerase ribozyme fitness (log ratio)” value: -0.596 for the first, -2.55 for the second.

C72A C86A and C72A C89U are within 0.2 log units of each other in “polymerase ribozyme fitness (log ratio)” value: -0.267 for the first, -0.157 for the second.

Going from C72A C89A to G69U U81C, the “polymerase ribozyme fitness (log ratio)” value rises from -0.502 to 0.131.

Going from G71C U78A to C70A C98U, the “polymerase ribozyme fitness (log ratio)” value falls from -0.14 to -2.73.

Going from C70U U96A G120A to G71U A95C C101U G127A, the “polymerase ribozyme fitness (log ratio)” value falls from -0.134 to -3.11.

Going from G71C U112A to G71U A75U C98U, the “polymerase ribozyme fitness (log ratio)” value falls from 0.348 to -2.02.

Going from G69U C76G U133A to C70U C88G U125G, the “polymerase ribozyme fitness (log ratio)” value rises from -2.07 to -1.36.

Going from C70G C85A U106A U130A to G71A G128C, the “polymerase ribozyme fitness (log ratio)” value rises from -4.47 to -3.14.

Compared with C72A C85U C102U A121G U133A, C70U U78C U129A is lower in “polymerase ribozyme fitness (log ratio)” value: 0.201 for the first, -1.77 for the second.

Going from C70U U78C U129G to C70U A90G U106A, the “polymerase ribozyme fitness (log ratio)” value rises from -1.5 to 0.297.

A68U U109A U129G and G71C A74U C89U G110C U125A U129A are within 0.2 log units of each other in “polymerase ribozyme fitness (log ratio)” value: -7.47 for the first, -7.38 for the second.

Going from G69C G113A C114A U125A U133A to C70A U130G, the “polymerase ribozyme fitness (log ratio)” value rises from -4.08 to -2.49.

Compared with C70A C80A U126C, C72A U87G A111G is higher in “polymerase ribozyme fitness (log ratio)” value: -5.37 for the first, 0.26 for the second.

Compared with G69U G93A A118G G135U, C70G U92C is lower in “polymerase ribozyme fitness (log ratio)” value: -0.918 for the first, -4.9 for the second.

Going from C70U C124G to C70U G135U, the “polymerase ribozyme fitness (log ratio)” value falls from 0.921 to -1.13.

Compared with G71A C89U A111U U112A C123A G127C, G71U U81A C123A is higher in “polymerase ribozyme fitness (log ratio)” value: -2.37 for the first, -1.04 for the second.

G71A U109C and A68G G113U are within 0.2 log units of each other in “polymerase ribozyme fitness (log ratio)” value: -4.59 for the first, -4.53 for the second.

Going from C70G G117U to C70U U81C U96C, the “polymerase ribozyme fitness (log ratio)” value rises from -4.3 to -1.2.

Compared with G71A U87G A103C U106C C124G, C70U C80A U87A is lower in “polymerase ribozyme fitness (log ratio)” value: -3.7 for the first, -5 for the second.

Going from A68G U132A to C70G U78C C82G A91C, the “polymerase ribozyme fitness (log ratio)” value falls from -3.13 to -5.79.

First: G71C C72A
Second: C70U C80A A95G A111G
The “polymerase ribozyme fitness (log ratio)” value of the first is lower: -6.22 for the first, -5.34 for the second.

Going from C70U C72U A121G to C70G C72U, the “polymerase ribozyme fitness (log ratio)” value falls from 1.38 to -2.61.

Going from G71U C124A to G71A C86A C114A, the “polymerase ribozyme fitness (log ratio)” value falls from 2.05 to -3.9.

Going from G71A U96A to G69C U96A, the “polymerase ribozyme fitness (log ratio)” value falls from -2.13 to -2.44.

Compared with C70A C104A, G69C C115U G128A is lower in “polymerase ribozyme fitness (log ratio)” value: -3.24 for the first, -4.75 for the second.

Going from C70U G120C U132C to C70U A75G, the “polymerase ribozyme fitness (log ratio)” value falls from 0.806 to -0.621.

Compared with G71A G110A C115U, G69A U92A is lower in “polymerase ribozyme fitness (log ratio)” value: -5.43 for the first, -6.38 for the second.

Compared with G69C C73A, A68U U112A is lower in “polymerase ribozyme fitness (log ratio)” value: -1.18 for the first, -5.84 for the second.

First: G71U U87C
Second: G69U A91U C99U U109G
The “polymerase ribozyme fitness (log ratio)” value of the first is higher: -0.194 for the first, -3.63 for the second.

Going from C72A U87A to G69U A118G, the “polymerase ribozyme fitness (log ratio)” value falls from 0.169 to -0.0784.

Compared with C70G A83G, C70G A83C is higher in “polymerase ribozyme fitness (log ratio)” value: -4.15 for the first, -2.96 for the second.

First: G69U U78G A91C U92G
Second: G71C U81G
The “polymerase ribozyme fitness (log ratio)” value of the first is higher: -0.788 for the first, -5.8 for the second.

Going from G69A A91C to C70G U130G U131G, the “polymerase ribozyme fitness (log ratio)” value rises from -5.04 to -4.28.

First: C70U C82A G113A
Second: C72A C94U
The “polymerase ribozyme fitness (log ratio)” value of the first is lower: -1.84 for the first, -0.00506 for the second.

Compared with G69U C70G C88U C115A, G71U C99A is lower in “polymerase ribozyme fitness (log ratio)” value: -0.11 for the first, -7.48 for the second.

Going from G69U U78C A84G G122A G128A to G69C A121U, the “polymerase ribozyme fitness (log ratio)” value rises from -3.23 to 0.369.

First: G71A G77U C88U G110A C115A U130A
Second: C70U C79U G93U
The “polymerase ribozyme fitness (log ratio)” value of the first is lower: -4.99 for the first, -2.15 for the second.

Compared with C70U G110U, C70A C88G U125G is lower in “polymerase ribozyme fitness (log ratio)” value: -2.59 for the first, -3.18 for the second.

Going from G71U C86A to G69C G128C, the “polymerase ribozyme fitness (log ratio)” value falls from -2.02 to -3.85.

Going from C70A U109G to C70A U109C, the “polymerase ribozyme fitness (log ratio)” value rises from -5.72 to -4.18.

Compared with G71A C97U, C70U G120U is higher in “polymerase ribozyme fitness (log ratio)” value: -1.06 for the first, 0.0972 for the second.

First: G71U A74G
Second: A68G U81A C99U A111U C124U
The “polymerase ribozyme fitness (log ratio)” value of the first is lower: -5.51 for the first, -5.02 for the second.

Going from C72A C85G G93A U106C to G69C U87A C123G, the “polymerase ribozyme fitness (log ratio)” value rises from -1.13 to -0.694.

First: C70A U112A G113A
Second: G69U A103C
The “polymerase ribozyme fitness (log ratio)” value of the first is lower: -2.47 for the first, -1.85 for the second.

Compared with G69U C88A G127C U131A, G69U C82G C89A is higher in “polymerase ribozyme fitness (log ratio)” value: -2.72 for the first, -1.32 for the second.

Compared with G69U C86G C94U C124G G135A, G71A U131G is lower in “polymerase ribozyme fitness (log ratio)” value: 0.0412 for the first, -1.27 for the second.

Going from C70U G107C G122A to G69C U106A, the “polymerase ribozyme fitness (log ratio)” value rises from -5.12 to -1.14.

Going from C70A C89U to G71A G113C, the “polymerase ribozyme fitness (log ratio)” value falls from -2.29 to -2.6.

Compared with G71C G120C, G71C G113U is lower in “polymerase ribozyme fitness (log ratio)” value: 0.219 for the first, -2.72 for the second.

First: C70G C86U G110U G113C
Second: C70U A105G G113A
The “polymerase ribozyme fitness (log ratio)” value of the first is lower: -6.29 for the first, -4.28 for the second.

Compared with C70A G117U, G71C C123U is higher in “polymerase ribozyme fitness (log ratio)” value: -4.09 for the first, -0.362 for the second.

Going from G71U G93U to G71U U81G A111U, the “polymerase ribozyme fitness (log ratio)” value falls from -0.956 to -6.76.

Compared with C70U U78G, C70U U78C is lower in “polymerase ribozyme fitness (log ratio)” value: -0.747 for the first, -1.4 for the second.

Going from G71A C114G to C70U C102U, the “polymerase ribozyme fitness (log ratio)” value rises from -3.49 to -2.39.

First: C72A U109A C123U
Second: C72A C124A
The “polymerase ribozyme fitness (log ratio)” value of the first is lower: -6.2 for the first, 1.27 for the second.

Going from C72A C124G to G71A C98U C101A, the “polymerase ribozyme fitness (log ratio)” value falls from 2.23 to -3.15.

First: G71C G93U C104U A119G
Second: G69A G77A C86U U112A
The “polymerase ribozyme fitness (log ratio)” value of the first is higher: -1.16 for the first, -2.89 for the second.

First: G71U U112C
Second: G71U A91G A121U
The “polymerase ribozyme fitness (log ratio)” value of the first is higher: 1.34 for the first, 0.367 for the second.

First: G69A C85A U106A U125A
Second: A68U U130C
The “polymerase ribozyme fitness (log ratio)” value of the first is lower: -5.49 for the first, -5.02 for the second.

With C72A C98A U131A the “polymerase ribozyme fitness (log ratio)” value was -5.63.
